The values below come from patent publication US20260049134A1 (UNIVERSITY OF FLORIDA RESEARCH FOUNDATION, published 2026).

Positions count from the first letter of the chain named. Numbers in names are those of the source.

For assay [1], the target named is T1, PTPRG-Fc (ECD of human PTPRG, aa 20-736, fused to human Fc gamma 1) (human, UniProt P23470 20-736).
T1 construct: Made in-house in Expi293 cells; Used in ELISA and SPR; also called recombinant PTPRG-Fc; PTRPG; not shown: human IgG1 Fc (Fc gamma 1) after the hinge
T1 sequence: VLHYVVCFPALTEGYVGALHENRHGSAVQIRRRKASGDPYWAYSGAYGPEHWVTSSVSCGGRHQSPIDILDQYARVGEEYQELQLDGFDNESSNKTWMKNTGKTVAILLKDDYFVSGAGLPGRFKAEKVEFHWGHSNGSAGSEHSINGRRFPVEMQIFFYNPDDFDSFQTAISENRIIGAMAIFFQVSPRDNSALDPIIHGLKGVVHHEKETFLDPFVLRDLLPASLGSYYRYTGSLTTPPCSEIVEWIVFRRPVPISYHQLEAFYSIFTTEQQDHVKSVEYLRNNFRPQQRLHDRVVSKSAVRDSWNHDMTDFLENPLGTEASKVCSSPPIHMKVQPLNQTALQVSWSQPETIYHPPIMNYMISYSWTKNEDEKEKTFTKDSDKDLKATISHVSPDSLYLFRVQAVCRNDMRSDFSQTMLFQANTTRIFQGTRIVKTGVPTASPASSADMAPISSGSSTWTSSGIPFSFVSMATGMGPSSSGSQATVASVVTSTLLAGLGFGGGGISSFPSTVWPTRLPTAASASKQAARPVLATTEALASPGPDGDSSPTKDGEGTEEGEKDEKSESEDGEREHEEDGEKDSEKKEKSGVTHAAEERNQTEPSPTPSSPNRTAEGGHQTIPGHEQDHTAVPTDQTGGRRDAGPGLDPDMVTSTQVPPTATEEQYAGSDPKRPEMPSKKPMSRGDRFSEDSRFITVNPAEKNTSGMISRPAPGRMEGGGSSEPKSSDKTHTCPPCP
The experiment in a line: ELISA on coated PTPRG-Fc. The method, then:
(§1) Recombinant purified ECDs (50-150 ng) of each putative target protein were coated, incubated with 150 ng of the indicated primary antibody, and binding was detected using a peroxidase-conjugated anti-human Fab secondary antibody. Heatmap represents averages of technical triplicates. (8B) Target validation via siRNA knockdown. H929 cells were transfected with siRNA pools targeting the putative antibody targets ICAM1, CADM1, and PTPRG. Cells were then subjected to cognate IgG binding analysis via flow cytometry. (NT, non-targeting siRNA).
(§2) ELISA ELISA was conducted as described previously. Briefly, 50-150 ng of antigen was coated overnight in half-area 96-well plates at 4° C., blocked with 3% BSA at 37° C. for 1 h, and 150 ng of chimeric rabbit/human IgG1 was added, incubating for 2 h at 37° C. […] After incubating at 37° C. for 15 min-1 h (depending on intensity of controls), data were acquired using a SpectraMax M5 plate reader (Molecular Devices).
Background: In an ELISA, binding on a coated surface is turned into a signal by an enzyme label.

The target in assay [2] is T1, PTPRG-Fc (ECD of human PTPRG, aa …). The experiment in a line: ELISA on coated protein.
The target of assay [3] is T2, CADM1-His (Acro Biosystems) (human, UniProt Q9BY67 45-374).
T2 construct: Bought; also called CADM1/IGSF4A; not shown: His tag of the bought protein
T2 sequence: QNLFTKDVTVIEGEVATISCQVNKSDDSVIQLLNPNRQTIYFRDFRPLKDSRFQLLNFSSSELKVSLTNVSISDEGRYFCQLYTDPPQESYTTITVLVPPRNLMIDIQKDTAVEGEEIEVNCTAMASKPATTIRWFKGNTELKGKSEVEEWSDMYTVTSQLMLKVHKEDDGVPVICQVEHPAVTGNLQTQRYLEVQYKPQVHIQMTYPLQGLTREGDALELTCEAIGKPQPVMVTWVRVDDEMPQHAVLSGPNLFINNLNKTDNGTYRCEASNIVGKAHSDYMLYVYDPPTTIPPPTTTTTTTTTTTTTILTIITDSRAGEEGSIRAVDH
The experiment in a line: ELISA on coated protein.

Assay [4] concerns the target T3, PTPRG, endogenous in H929 multiple myeloma cells (human, UniProt P23470 20-1445).
T3 construct: Native protein on H929 cells (flow cytometry, siRNA knockdown) and in H929 lysates (IP/MS); also called phosphatase receptor type γ
Briefly: flow cytometry, H929 + ICAM1 siRNA; None 455. For orientation: A flow cytometer gives signals particle by particle.

For assay [5], the target named is T4, GARS-His (Sino Biological) (human, UniProt P41250 37-739, limits assumed).
T4 construct: Bought; also called GARS1; glycyl-tRNA synthetase; not shown: His tag of the bought protein
T4 sequence: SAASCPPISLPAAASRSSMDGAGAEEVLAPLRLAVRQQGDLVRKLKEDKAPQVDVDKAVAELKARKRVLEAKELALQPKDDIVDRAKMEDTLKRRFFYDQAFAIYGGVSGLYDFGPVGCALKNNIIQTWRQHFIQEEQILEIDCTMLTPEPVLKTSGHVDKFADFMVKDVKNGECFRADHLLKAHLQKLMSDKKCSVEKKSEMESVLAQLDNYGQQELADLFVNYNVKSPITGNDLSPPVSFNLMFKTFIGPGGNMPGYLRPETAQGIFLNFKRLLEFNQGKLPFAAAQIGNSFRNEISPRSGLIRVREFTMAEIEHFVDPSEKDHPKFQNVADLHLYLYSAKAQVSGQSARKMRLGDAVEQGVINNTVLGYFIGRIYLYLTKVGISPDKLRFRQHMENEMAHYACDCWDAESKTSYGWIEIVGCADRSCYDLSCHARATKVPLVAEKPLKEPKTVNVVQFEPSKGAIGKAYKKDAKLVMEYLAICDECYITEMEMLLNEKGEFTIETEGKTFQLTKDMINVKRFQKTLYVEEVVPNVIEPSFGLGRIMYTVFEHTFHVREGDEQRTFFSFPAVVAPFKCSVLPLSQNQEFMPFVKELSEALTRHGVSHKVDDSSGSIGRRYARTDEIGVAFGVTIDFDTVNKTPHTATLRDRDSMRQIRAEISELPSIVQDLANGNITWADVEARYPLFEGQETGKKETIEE
Briefly: ELISA on coated GARS-His. Here is the method: as §1, §2

T3 sequence (P23470 20-1445 limits assumed): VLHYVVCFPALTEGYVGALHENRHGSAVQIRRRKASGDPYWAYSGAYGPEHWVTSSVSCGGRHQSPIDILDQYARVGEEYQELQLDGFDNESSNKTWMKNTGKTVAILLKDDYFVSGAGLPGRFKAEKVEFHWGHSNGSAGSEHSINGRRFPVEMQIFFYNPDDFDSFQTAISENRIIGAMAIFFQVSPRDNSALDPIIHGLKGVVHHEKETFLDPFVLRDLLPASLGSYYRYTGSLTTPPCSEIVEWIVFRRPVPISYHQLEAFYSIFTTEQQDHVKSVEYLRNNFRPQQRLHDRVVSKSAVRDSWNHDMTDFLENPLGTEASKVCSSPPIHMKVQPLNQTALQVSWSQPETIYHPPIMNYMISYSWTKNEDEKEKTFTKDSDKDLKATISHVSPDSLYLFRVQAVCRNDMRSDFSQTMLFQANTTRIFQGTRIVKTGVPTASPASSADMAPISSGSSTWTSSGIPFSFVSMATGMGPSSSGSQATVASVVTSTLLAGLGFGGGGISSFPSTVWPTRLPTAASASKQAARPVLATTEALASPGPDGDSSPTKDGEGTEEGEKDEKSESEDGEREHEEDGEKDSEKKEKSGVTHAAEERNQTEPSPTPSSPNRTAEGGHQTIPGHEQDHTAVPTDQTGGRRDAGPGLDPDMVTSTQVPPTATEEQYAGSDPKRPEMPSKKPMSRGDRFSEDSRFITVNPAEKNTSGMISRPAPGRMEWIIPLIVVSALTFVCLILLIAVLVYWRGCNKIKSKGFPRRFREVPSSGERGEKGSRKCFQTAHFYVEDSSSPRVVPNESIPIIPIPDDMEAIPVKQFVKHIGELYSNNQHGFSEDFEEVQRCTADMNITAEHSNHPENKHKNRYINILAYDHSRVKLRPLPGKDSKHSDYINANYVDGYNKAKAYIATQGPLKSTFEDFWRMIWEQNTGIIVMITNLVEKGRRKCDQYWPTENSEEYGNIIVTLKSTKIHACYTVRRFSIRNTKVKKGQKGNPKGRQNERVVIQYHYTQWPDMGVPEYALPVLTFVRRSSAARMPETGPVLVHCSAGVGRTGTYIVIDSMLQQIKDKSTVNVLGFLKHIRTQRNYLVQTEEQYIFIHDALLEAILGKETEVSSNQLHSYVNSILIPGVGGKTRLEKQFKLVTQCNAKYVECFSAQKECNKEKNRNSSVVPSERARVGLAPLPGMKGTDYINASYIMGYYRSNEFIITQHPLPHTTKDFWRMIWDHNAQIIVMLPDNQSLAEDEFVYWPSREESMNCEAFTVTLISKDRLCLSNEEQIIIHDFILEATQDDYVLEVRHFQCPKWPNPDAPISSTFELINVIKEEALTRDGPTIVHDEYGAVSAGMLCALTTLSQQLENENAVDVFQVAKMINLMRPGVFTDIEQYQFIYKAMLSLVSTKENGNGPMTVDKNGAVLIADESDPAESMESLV

B1: HW-56 chimeric rabbit-human IgG1 LA/LA/PG (antibody, V domains shown)
VH: QSVKESEGGLFKPTDTLTLTCTASGFTVSTNAVTWVRQAPGNGLEYIGTIGRSGSAYFASWAKRRSTLTRDINLNTVTLKMTSLTAADTATYFCVRGSPGYRTAISIWGPGTLVTISS
VL: AVMTQTPSSTSAAVEGTVTINCQASQSISNRLSWFQQKPGQPPKLLIYQASTLASGVPSRFKGSGSGTEFTLTISGVQREDAATYYCLGSYSSSDASFGGGTKLEIKR
notes: Fc-silenced (L234A/L235A/P329G) IgG1, kappa; Alexa Fluor 647-labeled in single-step flow cytometry; Cluster C-45
For the molecule B1, the binding result in assay [1] was “no binding (tested: 150 ng IgG1 per well)”.

B2: HW-8 chimeric rabbit-human IgG1 LA/LA/PG (antibody, V domains shown)
VH: QSLEESGGRLVTPGTPLTLTCTVSGFSLSSYAMSWVRQAPGKGLEWIGAISTGGSTTYASWAKGRFTISKTSSTTVDLKMTSLTTEDTATYFCVRHFRLWGPGTLVTISS
VL: QVLTQTPSSVSAAVGGTVTIKCQASQSIGSALAWFQQKPGQRPKLLIYRASNLASGVPSRFKGSGSGTEFALTISGVQREDAATYYCLGGAAAVWAFGAGTNVEIKR
notes: as for B1
For the molecule B2, the binding result in assay [2] and in assay [3] was “no binding (tested: 150 ng IgG1 per well)” throughout.

B3: HW-42 chimeric rabbit-human IgG1 LA/LA/PG (antibody, V domains shown)
VH: QSVKESEGGLFKPADTLTLTCTVSGFSLSSNEISWVRQAPGEGLEYIGIIDTGGRAYYAVWARSRSTITRNTNLNTVTLKMTSLTAADTATYFCARGGVDTEWYAFSSWGPGTLVTVPS
VL: SFVLTQPASVQVNLGQTVSLTCTADTLSRRYASWYQQKPGQAPVLLIFRDTSRPSGVPDRFSGSSSGDTATLTISGAQAGDEADYYCATSDGSGSNYQYVFGGGTQLTVTG
notes: Fc-silenced (L234A/L235A/P329G) IgG1, lambda; Alexa Fluor 647-labeled in single-step flow cytometry; Cluster C-1
As for B3, the “mAb binding (MFI)” value in assay [4] was found to be 12100. Further, the binding result in assay [5] is recorded as “no binding (tested: 150 ng IgG1 per well)”.

B4: HW-17 chimeric rabbit-human IgG1 LA/LA/PG (antibody, V domains shown)
VH: QSLGESRGRLVTPDETLTLTCTVSGIDLSSNAMSWVRQAPGEGLEWIGTINTGGRAYYASWAKGRFTISRTSTTVDLKMTSLTTEDTATYFCARERYSDGRAYDIWGPGTLVTISS
VL: B3 VL with F48Y, R49T, T51S, S52N, V57I, D68N, S90D, N96I
notes: as for B3
B4: the binding result in assay [3] was “no binding (tested: 150 ng IgG1 per well)”. Besides, in assay [4], the “mAb binding (MFI)” value is 28000.

B5: HW-101 chimeric rabbit-human IgG1 LA/LA/PG (antibody, V domains shown)
VH: QEQLVESGGRLVTPGTPLTLTCKASGFSLGKYDMSWVRQAPGKGLEWIGTIYAGSGSTWYASWAKGRFTISKTSTTVDLKMTSLTTEDTATYFCARDFLGVNSIWGPGTLVTISS
VL: B3 VL with R30S, G40D, F48H, S65N, D68N, Y97F, Q98H, Y99F
notes: Fc-silenced (L234A/L235A/P329G) IgG1, lambda; Alexa Fluor 647-labeled in single-step flow cytometry; Cluster C-97
On to B5, for which, in assay [2], the binding result is recorded as “no binding (tested: 150 ng IgG1 per well)”.

B6: HW-97 chimeric rabbit-human IgG1 LA/LA/PG (antibody, V domains shown)
VH: QKQLVESGGRLVTPGTPLTLTCTVTGIDLSSHGMSWVRQAPGKGLEWIGVIYPSGSTWYASWARGRFTISKTSTTVDLKMTSLTTEDTATHFCARGDVGGADNNIWGPGTLVTVSS
VL: B3 VL with N13D, D25E, R30S, F48Y, D68N, N96S
notes: Fc-silenced (L234A/L235A/P329G) IgG1, lambda; Alexa Fluor 647-labeled in single-step flow cytometry; Prototype of cluster C-97
On to B6, for which, in assay [2], the binding result was “no binding (tested: 150 ng IgG1 per well)”.

B7: HW-70 chimeric rabbit-human IgG1 LA/LA/PG (antibody, V domains shown)
VH: QSLEESGGRLVTPGTPLTLTCTVSGFSLSSNAMSWVRQAPGKGLEWIGTIDGYGYTYYASWAKGRFTVSKTSTTVDLKITSPTTEDTATYFCAREIYLGSNFWGPGTLVTISS
VL: B3 VL with F48Y, D68N, S90A, N96S, Y99F
notes: as for B3
For the molecule B7, the “mAb binding (MFI)” value in assay [4] was determined as 17900. Also, the binding result in assay [5] is recorded as “no binding (tested: 150 ng IgG1 per well)”.

B8: HW-28 chimeric rabbit-human IgG1 LA/LA/PG (antibody, V domains shown)
VH: QKQLVESGGRLVTPGTPLTLTCTASGFSLSSNAMSWVRQAPGEGLQWIGTISSGGSTYYASWAKGRFTISKTSTTVTLKMTSLTTEDTATYFCARGADLHRLWGPGTLVTVSS
VL: B3 VL with A24G, D25K, T26P, R30S, Y31F, L46V, F48Y, D68N, N96S
notes: Fc-silenced (L234A/L235A/P329G) IgG1, lambda; Alexa Fluor 647-labeled in single-step flow cytometry; Cluster C-45
With B8, the binding result in assay [1] was “no binding (tested: 150 ng IgG1 per well)”.

B9: HW-1 chimeric rabbit-human IgG1 LA/LA/PG (antibody, V domains shown)
VH: QSLEESGGGLFKPTDTLTLTCTASGFSLGSSYAISWVRQAPGKELEWIGTIDSGRAYYARWAKSRSTITRNTNENTVTLKMTSLTAADTATYFCARDLIPTYSQDIWGPGTLVTISS
VL: B3 VL with F48Y, D68N, S95N, N96S, G111S
notes: Fc-silenced (L234A/L235A/P329G) IgG1, lambda; Alexa Fluor 647-labeled in single-step flow cytometry; Prototype of cluster C-1
With B9, the binding result in assay [3] is recorded as “no binding (tested: 150 ng IgG1 per well)”. Moreover, in assay [4], the “mAb binding (MFI)” value amounted to 24500.

B10: HW-113 chimeric rabbit-human IgG1 LA/LA/PG (antibody, V domains shown)
VH: QKQLVESGGGLVQPGGSLTLTCTVSGFSLNKYYMGWFRQAPGKGLEWIGVISRSGDTYYSSWAKGRFTISKASTTVDLRITSPTTEDTATYFCARDASSPGFHGDRLDLWGQGTLVTVSS
VL: B3 VL with R30S, F48Y, D68N, S93I, Q98L, Y99W
notes: Fc-silenced (L234A/L235A/P329G) IgG1, lambda; Alexa Fluor 647-labeled in single-step flow cytometry
B10: the binding result in assay [2] and in assay [3] was “no binding (tested: 150 ng IgG1 per well)” throughout.

B11: HW-81 chimeric rabbit-human IgG1 LA/LA/PG (antibody, V domains shown)
VH: QKQLVESGGGLVTPGGTLTLTCTVSGFSLSSNGVSWVRQAPGKGLEYIGLIRSIGSTYYATWAKGRFTISKTSTTVDLKITSPTTEDTATYFCARGGYRNGFKLWGPGTLVTVSS
VL: QPVLTQSPSVSAALGASAKLTCTLSSAHKTYYIEWYQQQHPGKAPRYLMQLQSDGSYTKGTGVPDRFSGSSSGADRYLIISSVQAEDEADYICGVIDSAVYVFGGGTQLTVTG
notes: as for B8
B11: the binding result in assay [1] is listed as “no binding (tested: 150 ng IgG1 per well)”.

B12: TH9-0022 (antibody, human IgG1, kappa, L234A L235A, V domains shown)
VH: QSLEESGGRLVTPGTPLTLTCTVSGFSLSSYAMNWVRQAPGKGLEWIGIINSYGSTYYASWAKGRFTISKTSTTVDLKITSPTTEDTATYFCARVTYDSYGYGYAPYGMDLWGPGTLVTVSS
VL: LVMTQTPSSTSNAVGGTVTIKCQASQSIGNVLAWYQQKPGQPPKLLIYAASTLASGVPSRVGGSRSGTEYTLTISGVQREDAATYYCLGSDSDSDIAFGGGTELEILR
notes: also called TH9-022; negative control IgG1
Turning to B12, the binding result in assay [2] and in assay [3] was “no binding (tested: 150 ng IgG1 per well)” each time.
